In patent US20040087777A1 (NEURALAB, published 2004):

Tests used:
Experiment in all cases: rNET
… analog, Residue 3 = W = molecular target: T1, … analog, Residue 3 = W
T1 peptide: DAWFRHDSGY
Protocol: (§1) The rNET epitope map assay provides information about the contribution of individual residues within the epitope to the overall binding activity of the antibody. rNET analysis uses synthesized systematic single substituted peptide analogs. Binding of an antibody being tested is determined against native peptide (native antigen) and against 19 alternative “single substituted” peptides, each peptide being substituted at a first position with one of 19 non-native amino acids for that position. A profile is generated reflecting the effect of substitution at that position with the various non-native residues. Profiles are likewise generated at successive positions along the antigenic peptide. The combined profile, or epitope map, (reflecting substitution at each position with all 19 non-native residues) can then be compared to a map similarly generated for a second antibody.
(§2) Antibodies were tested for binding against the native Aβ peptide [sequence] […] Residues 1-8 were systematically substituted with each of the 19 non-native residues for that position.

… analog, Residue 3 = G = molecular target: T2, … analog, Residue 3 = G
T2 peptide: DAGFRHDSGY
Protocol: as §1, §2

… analog, Residue 8 = V = molecular target: T3, … analog, Residue 8 = V
T3 peptide: DAEFRHDVGY
Protocol: as §1, §2

… analog, Residue 2 = Y = molecular target: T4, … analog, Residue 2 = Y
T4 peptide: DYEFRHDSGY
Protocol: as §1, §2

… analog, Residue 3 = M = molecular target: T5, … analog, Residue 3 = M
T5 peptide: DAMFRHDSGY
Protocol: as §1, §2

… analog, Residue 3 = N = molecular target: T6, … analog, Residue 3 = N
T6 peptide: DANFRHDSGY
Protocol: as §1, §2

… analog, Residue 1 = A = molecular target: T7, … analog, Residue 1 = A
T7 peptide: AAEFRHDSGY
Protocol: as §1, §2

… analog, Residue 1 = M = molecular target: T8, … analog, Residue 1 = M
T8 peptide: MAEFRHDSGY
Protocol: as §1, §2

… analog, Residue 3 = I = molecular target: T9, … analog, Residue 3 = I
T9 peptide: DAIFRHDSGY
Protocol: as §1, §2

… analog, Residue 8 = D = molecular target: T10, … analog, Residue 8 = D
T10 peptide: DAEFRHDDGY
Protocol: as §1, §2

… analog, Residue 8 = I = molecular target: T11, … analog, Residue 8 = I
T11 peptide: DAEFRHDIGY
Protocol: as §1, §2

… analog, Residue 2 = P = molecular target: T12, … analog, Residue 2 = P
T12 peptide: DPEFRHDSGY
Protocol: as §1, §2

… analog, Residue 2 = G = molecular target: T13, … analog, Residue 2 = G
T13 peptide: DGEFRHDSGY
Protocol: as §1, §2

… analog, Residue 1 = T = molecular target: T14, … analog, Residue 1 = T
T14 peptide: TAEFRHDSGY
Protocol: as §1, §2

… analog, Residue 8 = Q = molecular target: T15, … analog, Residue 8 = Q
T15 peptide: DAEFRHDQGY
Protocol: as §1, §2

… analog, Residue 2 = C = molecular target: T16, … analog, Residue 2 = C
T16 peptide: DCEFRHDSGY
Protocol: as §1, §2

… analog, Residue 8 = F = molecular target: T17, … analog, Residue 8 = F
T17 peptide: DAEFRHDFGY
Protocol: as §1, §2

… analog, Residue 3 = C = molecular target: T18, … analog, Residue 3 = C
T18 peptide: DACFRHDSGY
Protocol: as §1, §2

… analog, Residue 2 = L = molecular target: T19, … analog, Residue 2 = L
T19 peptide: DLEFRHDSGY
Protocol: as §1, §2

… analog, Residue 8 = E = molecular target: T20, … analog, Residue 8 = E
T20 peptide: DAEFRHDEGY
Protocol: as §1, §2

… analog, Residue 2 = Q = molecular target: T21, … analog, Residue 2 = Q
T21 peptide: DQEFRHDSGY
Protocol: as §1, §2

… analog, Residue 8 = G = molecular target: T22, … analog, Residue 8 = G
T22 peptide: DAEFRHDGGY
Protocol: as §1, §2

… analog, Residue 8 = M = molecular target: T23, … analog, Residue 8 = M
T23 peptide: DAEFRHDMGY
Protocol: as §1, §2

… analog, Residue 3 = R = molecular target: T24, … analog, Residue 3 = R
T24 peptide: DARFRHDSGY
Protocol: as §1, §2

… analog, Residue 8 = R = molecular target: T25, … analog, Residue 8 = R
T25 peptide: DAEFRHDRGY
Protocol: as §1, §2

… analog, Residue 3 = L = molecular target: T26, … analog, Residue 3 = L
T26 peptide: DALFRHDSGY
Protocol: as §1, §2

… analog, Residue 1 = S = molecular target: T27, … analog, Residue 1 = S
T27 peptide: SAEFRHDSGY
Protocol: as §1, §2

… analog, Residue 1 = P = molecular target: T28, … analog, Residue 1 = P
T28 peptide: PAEFRHDSGY
Protocol: as §1, §2

… analog, Residue 2 = H = molecular target: T29, … analog, Residue 2 = H
T29 peptide: DHEFRHDSGY
Protocol: as §1, §2

… analog, Residue 8 = W = molecular target: T30, … analog, Residue 8 = W
T30 peptide: DAEFRHDWGY
Protocol: as §1, §2

… analog, Residue 2 = V = molecular target: T31, … analog, Residue 2 = V
T31 peptide: DVEFRHDSGY
Protocol: as §1, §2

… analog, Residue 5 = G = molecular target: T32, … analog, Residue 5 = G
T32 peptide: DAEFGHDSGY
Protocol: as §1, §2

… analog, Residue 1 = N = molecular target: T33, … analog, Residue 1 = N
T33 peptide: NAEFRHDSGY
Protocol: as §1, §2

… analog, Residue 8 = P = molecular target: T34, … analog, Residue 8 = P
T34 peptide: DAEFRHDPGY
Protocol: as §1, §2

… analog, Residue 1 = L = molecular target: T35, … analog, Residue 1 = L
T35 peptide: LAEFRHDSGY
Protocol: as §1, §2

… analog, Residue 1 = F = molecular target: T36, … analog, Residue 1 = F
T36 peptide: FAEFRHDSGY
Protocol: as §1, §2

… analog, Residue 2 = D = molecular target: T37, … analog, Residue 2 = D
T37 peptide: DDEFRHDSGY
Protocol: as §1, §2

… analog, Residue 2 = N = molecular target: T38, … analog, Residue 2 = N
T38 peptide: DNEFRHDSGY
Protocol: as §1, §2

… analog, Residue 8 = L = molecular target: T39, … analog, Residue 8 = L
T39 peptide: DAEFRHDLGY
Protocol: as §1, §2

… analog, Residue 2 = S = molecular target: T40, … analog, Residue 2 = S
T40 peptide: DSEFRHDSGY
Protocol: as §1, §2

… analog, Residue 2 = W = molecular target: T41, … analog, Residue 2 = W
T41 peptide: DWEFRHDSGY
Protocol: as §1, §2

… analog, Residue 1 = E = molecular target: T42, … analog, Residue 1 = E
T42 peptide: EAEFRHDSGY
Protocol: as §1, §2

… analog, Residue 1 = W = molecular target: T43, … analog, Residue 1 = W
T43 peptide: WAEFRHDSGY
Protocol: as §1, §2

… analog, Residue 8 = C = molecular target: T44, … analog, Residue 8 = C
T44 peptide: DAEFRHDCGY
Protocol: as §1, §2

… analog, Residue 3 = H = molecular target: T45, … analog, Residue 3 = H
T45 peptide: DAHFRHDSGY
Protocol: as §1, §2

… analog, Residue 3 = F = molecular target: T46, … analog, Residue 3 = F
T46 peptide: DAFFRHDSGY
Protocol: as §1, §2

… analog, Residue 2 = T = molecular target: T47, … analog, Residue 2 = T
T47 peptide: DTEFRHDSGY
Protocol: as §1, §2

… analog, Residue 1 = C = molecular target: T48, … analog, Residue 1 = C
T48 peptide: CAEFRHDSGY
Protocol: as §1, §2

… analog, Residue 2 = M = molecular target: T49, … analog, Residue 2 = M
T49 peptide: DMEFRHDSGY
Protocol: as §1, §2

… analog, Residue 3 = S = molecular target: T50, … analog, Residue 3 = S
T50 peptide: DASFRHDSGY
Protocol: as §1, §2

… analog, Residue 2 = E = molecular target: T51, … analog, Residue 2 = E
T51 peptide: DEEFRHDSGY
Protocol: as §1, §2

… analog, Residue 1 = K = molecular target: T52, … analog, Residue 1 = K
T52 peptide: KAEFRHDSGY
Protocol: as §1, §2

… analog, Residue 7 = E = molecular target: T53, … analog, Residue 7 = E
T53 peptide: DAEFRHESGY
Protocol: as §1, §2

… analog, Residue 8 = T = molecular target: T54, … analog, Residue 8 = T
T54 peptide: DAEFRHDTGY
Protocol: as §1, §2

… analog, Residue 2 = R = molecular target: T55, … analog, Residue 2 = R
T55 peptide: DREFRHDSGY
Protocol: as §1, §2

… analog, Residue 3 = T = molecular target: T56, … analog, Residue 3 = T
T56 peptide: DATFRHDSGY
Protocol: as §1, §2

… analog, Residue 8 = Y = molecular target: T57, … analog, Residue 8 = Y
T57 peptide: DAEFRHDYGY
Protocol: as §1, §2

… analog, Residue 3 = D = molecular target: T58, … analog, Residue 3 = D
T58 peptide: DADFRHDSGY
Protocol: as §1, §2

… analog, Residue 3 = Y = molecular target: T59, … analog, Residue 3 = Y
T59 peptide: DAYFRHDSGY
Protocol: as §1, §2

… analog, Residue 1 = Y = molecular target: T60, … analog, Residue 1 = Y
T60 peptide: YAEFRHDSGY
Protocol: as §1, §2

… analog, Residue 3 = A = molecular target: T61, … analog, Residue 3 = A
T61 peptide: DAAFRHDSGY
Protocol: as §1, §2

… analog, Residue 3 = Q = molecular target: T62, … analog, Residue 3 = Q
T62 peptide: DAQFRHDSGY
Protocol: as §1, §2

… analog, Residue 3 = P = molecular target: T63, … analog, Residue 3 = P
T63 peptide: DAPFRHDSGY
Protocol: as §1, §2

… analog, Residue 1 = Q = molecular target: T64, … analog, Residue 1 = Q
T64 peptide: QAEFRHDSGY
Protocol: as §1, §2

… analog, Residue 3 = V = molecular target: T65, … analog, Residue 3 = V
T65 peptide: DAVFRHDSGY
Protocol: as §1, §2

… analog, Residue 2 = I = molecular target: T66, … analog, Residue 2 = I
T66 peptide: DIEFRHDSGY
Protocol: as §1, §2

… analog, Residue 1 = I = molecular target: T67, … analog, Residue 1 = I
T67 peptide: IAEFRHDSGY
Protocol: as §1, §2

… analog, Residue 8 = H = molecular target: T68, … analog, Residue 8 = H
T68 peptide: DAEFRHDHGY
Protocol: as §1, §2

… analog, Residue 1 = G = molecular target: T69, … analog, Residue 1 = G
T69 peptide: GAEFRHDSGY
Protocol: as §1, §2
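Also: antibody binding measured against single-substituted peptide analogs, each epitope position replaced by every one of 19 non-native amino acids, compared with binding to the native Aβ peptide.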

OD (… analog, Residue 3 = W): 0.149 OD | OD (… analog, Residue 3 = G): 0.016 OD | OD (… analog, Residue 8 = V): 0.578 OD | OD (… analog, Residue 2 = Y): 0.547 OD | OD (… analog, Residue 3 = M): 0.019 OD | OD (… analog, Residue 3 = N): 0.024 OD | OD (… analog, Residue 1 = A): 0.464 OD | OD (… analog, Residue 1 = M): 0.039 OD | OD (… analog, Residue 3 = I): 0.019 OD | OD (… analog, Residue 8 = D): 0.586 OD | OD (… analog, Residue 8 = I): 0.568 OD | OD (… analog, Residue 2 = P): 0.445 OD | OD (… analog, Residue 2 = G): 0.527 OD | OD (… analog, Residue 1 = T): 0.45 OD | OD (… analog, Residue 8 = Q): 0.59 OD | OD (… analog, Residue 2 = C): 0.553 OD | OD (… analog, Residue 8 = F): 0.586 OD | OD (… analog, Residue 3 = C): 0.222 OD | OD (… analog, Residue 2 = L): 0.482 OD | OD (… analog, Residue 8 = E): 0.601 OD | OD (… analog, Residue 2 = Q): 0.567 OD | OD (… analog, Residue 8 = G): 0.569 OD | OD (… analog, Residue 8 = M): 0.571 OD | OD (… analog, Residue 3 = R): 0.015 OD | OD (… analog, Residue 8 = R): 0.589 OD | OD (… analog, Residue 3 = L): 0.019 OD | OD (… analog, Residue 1 = S): 0.569 OD | OD (… analog, Residue 1 = P): 0.069 OD | OD (… analog, Residue 2 = H): 0.534 OD | OD (… analog, Residue 8 = W): 0.567 OD | OD (… analog, Residue 2 = V): 0.55 OD | OD (… analog, Residue 5 = G): 0.485 OD | OD (… analog, Residue 1 = N): 0.587 OD | OD (… analog, Residue 8 = P): 0.574 OD | OD (… analog, Residue 1 = L): 0.073 OD | OD (… analog, Residue 1 = F): 0.034 OD | OD (… analog, Residue 2 = D): 0.119 OD | OD (… analog, Residue 2 = N): 0.525 OD | OD (… analog, Residue 8 = L): 0.57 OD | OD (… analog, Residue 2 = S): 0.587 OD | OD (… analog, Residue 2 = W): 0.553 OD | OD (… analog, Residue 1 = E): 0.576 OD | OD (… analog, Residue 1 = W): 0.031 OD | OD (… analog, Residue 8 = C): 0.583 OD | OD (… analog, Residue 3 = H): 0.016 OD | OD (… analog, Residue 3 = F): 0.034 OD | OD (… analog, Residue 2 = T): 0.552 OD | OD (… analog, Residue 1 = C): 0.45 OD | OD (… analog, Residue 2 = M): 0.535 OD | OD (… analog, Residue 3 = S): 0.016 OD | OD (… analog, Residue 2 = E): 0.563 OD | OD (… analog, Residue 1 = K): 0.033 OD | OD (… analog, Residue 7 = E): 0.565 OD | OD (… analog, Residue 8 = T): 0.586 OD | OD (… analog, Residue 2 = R): 0.562 OD | OD (… analog, Residue 3 = T): 0.015 OD | OD (… analog, Residue 8 = Y): 0.574 OD | OD (… analog, Residue 3 = D): 0.019 OD | OD (… analog, Residue 3 = Y): 0.016 OD | OD (… analog, Residue 1 = Y): 0.341 OD | OD (… analog, Residue 3 = A): 0.038 OD | OD (… analog, Residue 3 = Q): 0.153 OD | OD (… analog, Residue 3 = P): 0.017 OD | OD (… analog, Residue 1 = Q): 0.441 OD | OD (… analog, Residue 3 = V): 0.016 OD | OD (… analog, Residue 2 = I): 0.522 OD | OD (… analog, Residue 1 = I): 0.048 OD | OD (… analog, Residue 8 = H): 0.559 OD | OD (… analog, Residue 1 = G): 0.569 OD
B1: murine monoclonal antibody 3D6 (antibody, mouse IgG2b, V domains shown)
VH: EVKLVESGGGLVKPGASLKLSCAASGFTFSNYGMSWVRQNSDKRLEWVASIRSGGGRTYYSDNVKGRFTISRENAKNTLYLQMSSLKSEDTALYYCVRYDHYSGSSDYWGQGTTVTVSS
VL: not shown
notes: also called mAb 3D6; m3D6
